Measurements as given in publication PMC7101349 (2020).
Where two headings read alike, the source gives them in different places.

What was measured:
Assay in all cases: SPR
His10-BRIL [1] = target: T1, His10-BRIL (UniProt P0ABE7 30-123)
His10-BRIL [2] = target: T1, His10-BRIL; remark: listed apart in the source
His10-BRIL [3] = target: T1, His10-BRIL; remark: listed apart in the source
His10-BRIL [4] = target: T1, His10-BRIL; remark: listed apart in the source

Row | Binder | Kd (His10-BRIL [1]) | koff (His10-BRIL [3]) | other results
1 | sAB BAK5 (Fab, V domains shown) VH: EVQLVESGGGLVQPGGSLRLSCAASGFNVRSFSIHWVRQAPGKGLEWVAYISSSSGSTSYADSVKGRFTISADTSKNTAYLQMNSLRAEDTAVYYCARWGYWPGEPWWKAFDYWGQGTLVTVSS VL: DIQMTQSPSSLSASVGDRVTITCRASQSVSSAVAWYQQKPGKAPKLLIYSASSLYSGVPSRFSGSRSGTDFTLTISSLQPEDFATYYCQQYLYYSLVTFGQGTKVEIK | 0.175 nM | – | –
2 | sAB BAG2 (Fab, V domains shown) VH: EVQLVESGGGLVQPGGSLRLSCAASGFNVVDFSLHWVRQAPGKGLEWVAYISSSSGSTSYADSVKGRFTISADTSKNTAYLQMNSLRAEDTAVYYCARWGYWPGEPWWKAFDYWGQGTLVTVSS VL: DIQMTQSPSSLSASVGDRVTITCRASQSVSSAVAWYQQKPGKAPKLLIYSASSLYSGVPSRFSGSRSGTDFTLTISSLQPEDFATYYCQQYLYYSLVTFGQGTKVEIK | 0.269 nM | – | koff (His10-BRIL [2]): 0.00013 s⁻¹
3 | BAG2 F35A (Fab, V domains shown) VH: EVQLVESGGGLVQPGGSLRLSCAASGFNVVDASLHWVRQAPGKGLEWVAYISSSSGSTSYADSVKGRFTISADTSKNTAYLQMNSLRAEDTAVYYCARWGYWPGEPWWKAFDYWGQGTLVTVSS VL: DIQMTQSPSSLSASVGDRVTITCRASQSVSSAVAWYQQKPGKAPKLLIYSASSLYSGVPSRFSGSRSGTDFTLTISSLQPEDFATYYCQQYLYYSLVTFGQGTKVEIK | – | 0.00028 s⁻¹ | –
4 | BAG2 S36A (Fab, V domains shown) VH: EVQLVESGGGLVQPGGSLRLSCAASGFNVVDFALHWVRQAPGKGLEWVAYISSSSGSTSYADSVKGRFTISADTSKNTAYLQMNSLRAEDTAVYYCARWGYWPGEPWWKAFDYWGQGTLVTVSS VL: DIQMTQSPSSLSASVGDRVTITCRASQSVSSAVAWYQQKPGKAPKLLIYSASSLYSGVPSRFSGSRSGTDFTLTISSLQPEDFATYYCQQYLYYSLVTFGQGTKVEIK | – | 0.00037 s⁻¹ | –
5 | sAB24 (Fab, V domains shown) VH: EVQLVESGGGLVQPGGSLRLSCAASGFNFSSSSIHWVRQAPGKGLEWVAYISSSSGSTSYADSVKGRFTISADTSKNTAYLQMNSLRAEDTAVYYCARWGYWPGEPWWKAFDYWGQGTLVTVSS VL: DIQMTQSPSSLSASVGDRVTITCRASQSVSSAVAWYQQKPGKAPKLLIYSASSLYSGVPSRFSGSRSGTDFTLTISSLQPEDFATYYCQQYLYYSLVTFGQGTKVEIK | – | – | koff (His10-BRIL [4]): 0.0008 s⁻¹
